Results taken from patent publication US20150140169.
Where a chain is given by its changes, count along the chain named. In names and notes the source's numbering stands.

T1: alpha-s1 casein from Bos taurus
T1 chain: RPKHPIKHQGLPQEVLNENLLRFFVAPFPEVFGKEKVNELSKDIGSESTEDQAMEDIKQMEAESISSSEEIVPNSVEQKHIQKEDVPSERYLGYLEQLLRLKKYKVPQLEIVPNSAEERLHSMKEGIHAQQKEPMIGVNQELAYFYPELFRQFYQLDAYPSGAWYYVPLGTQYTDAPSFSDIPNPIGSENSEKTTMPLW

B1: bovine chymosin B variant #6 (K221M) (protein)
chain: GEVASVPLTNYLDSQYFGKIYLGTPPQEFTVLFDTGSSDFWVPSIYCKSNACKNHQRFDPRKSSTFQNLGKPLSIHYGTGSMQGILGYDTVTVSNIVDIQQTVGLSTQEPGDVFTYAEFDGILGMAYPSLASEYSIPVFDNMMNRHLVAQDLFSVYMDRNGQESMLTLGAIDPSYYTGSLHWVPVTVQQYWQFTVDSVTISGVVVACEGGCQAILDTGTSMLVGPSSDILNIQQAIGATQNQYGEFDIDCDNLSYMPTVVFEINGKMYPLTPSAYTSQDQGFCTSGFQSENHSQKWILGDVFIREYYSVFDRANNLVGLAKAI
B2: bovine chymosin B variant #74 (A51V, K221M) (protein)
chain: B1 chain with A51V
B3: bovine chymosin B variant #71 (A51V, K221V) (protein)
chain: B1 chain with A51V, M221V
B4: bovine chymosin B variant #103 (A51I, K221T) (protein)
chain: B1 chain with A51I, M221T
B5: bovine chymosin B variant #7 (K221V) (protein)
chain: B1 chain with M221V
B6: bovine chymosin B variant #98 (A51V, K221V, S135T, A126G, S273Y, Q240E) (protein)
chain: B1 chain with A51V, A126G, S135T, M221V, Q240E, S273Y
B7: Chymax M (recombinant camel chymosin) (protein)
chain: GKVAREPLTSYLDSQYFGKIYIGTPPQEFTVVFDTGSSDLWVPSIYCKSNVCKNHHRFDPRKSSTFRNLGKPLSIHYGTGSMEGFLGYDTVTVSNIVDPNQTVGLSTEQPGEVFTYSEFDGILGLAYPSLASEYSVPVFDNMMDRHLVARDLFSVYMDRNGQGSMLTLGAIDPSYYTGSLHWVPVTLQQYWQFTVDSVTINGVAVACVGGCQAILDTGTSVLFGPSSDILKIQMAIGATENRYGEFDVNCGNLRSMPTVVFEINGRDYPLSPSAYTSKDQGFCTSGFQGDNNSELWILGDVFIREYYSVFDRANNRVGLAKAI
B8: camel chymosin variant #161 (L295M) (protein)
chain: B7 chain with L295M
B9: camel chymosin variant #156 (D290S) (protein)
chain: B7 chain with D290S
B10: camel chymosin variant #160 (L295K) (protein)
chain: B7 chain with L295K
B11: camel chymosin variant #167 (I297V) (protein)
chain: B7 chain with I297V
B12: camel chymosin variant #158 (L295F) (protein)
chain: B7 chain with L295F
B13: camel chymosin variant #163 (L295T) (protein)
chain: B7 chain with L295T
B14: camel chymosin variant #164 (L295Y) (protein)
chain: B7 chain with L295Y
B15: camel chymosin variant #165 (L295W) (protein)
chain: B7 chain with L295W
B16: camel chymosin variant #157 (D290T) (protein)
chain: B7 chain with D290T
B17: camel chymosin variant #166 (I297T) (protein)
chain: B7 chain with I297T
B18: camel chymosin variant #162 (L295R) (protein)
chain: B7 chain with L295R
B19: camel chymosin variant #159 (L295I) (protein)
chain: B7 chain with L295I

Biological target: T1, alpha-s1 casein from Bos taurus

Protein	hydrolysis of the first cut in alpha-s1-casein	small, 6 hours, 11° C.	small, 24 hours, 11° C.	αs1-I CN, 6 hours, 11° C.	αs1-I CN, 24 hours, 11° C.	αs1-I CN/αs1 CN, 6 hours, 11° C.	αs1-I CN/αs1 CN, 24 hours, 11° C.	αs1 CN, 6 hours, 11° C.	αs1 CN, 24 hours, 11° C.	small, 16 hours, 30° C.
B1	show a clear hydrolysis of the first cut in alpha-s1-casein, leading to a rapid formation of fragment alpha-s1-I casein	0 Volume	4.3e+06 Volume	1.89e+07 Volume	2.22e+07 Volume	1	4.3	1.81e+07 Volume	5.1e+06 Volume	
B2	show a clear hydrolysis of the first cut in alpha-s1-casein, leading to a rapid formation of fragment alpha-s1-I casein	0 Volume	0 Volume	1.98e+07 Volume	2.47e+07 Volume	0.9	3.9	2.09e+07 Volume	6.3e+06 Volume	5.1e+06 Volume
B3	show a clear hydrolysis of the first cut in alpha-s1-casein, leading to a rapid formation of fragment alpha-s1-I casein	0 Volume	0 Volume	2.54e+07 Volume	2.46e+07 Volume	2.9	9.8	8.8e+06 Volume	2.5e+06 Volume	2.4e+06 Volume
B4	show a clear hydrolysis of the first cut in alpha-s1-casein, leading to a rapid formation of fragment alpha-s1-I casein									1.3e+06 Volume
B5	show a clear hydrolysis of the first cut in alpha-s1-casein, leading to a rapid formation of fragment alpha-s1-I casein	0 Volume	1.05e+07 Volume	2.28e+07 Volume	1.82e+07 Volume	2.1	6.4	1.07e+07 Volume	2.8e+06 Volume	
B6	show a clear hydrolysis of the first cut in alpha-s1-casein, leading to a rapid formation of fragment alpha-s1-I casein									1.4e+06 Volume
B7	shows a slow first cut in alpha-s1 casein	0 Volume	1.1e+07 Volume	1.28e+07 Volume	1.62e+07 Volume	0.5	1.3	2.73e+07 Volume	1.25e+07 Volume	9e+06 Volume
B8				1.96e+07 Volume	2.23e+07 Volume			3.15e+07 Volume	1.1e+07 Volume	
B9				1.7e+07 Volume	3.16e+07 Volume			3.15e+07 Volume	1.71e+07 Volume	
B10				1.81e+07 Volume	2.49e+07 Volume			2.95e+07 Volume	1.2e+07 Volume	
B11				2.02e+07 Volume	2.29e+07 Volume			2.73e+07 Volume	8e+06 Volume	
B12				1.95e+07 Volume	2.22e+07 Volume			2.63e+07 Volume	9.8e+06 Volume	
B13				1.48e+07 Volume	1.79e+07 Volume			2.79e+07 Volume	1.14e+07 Volume	
B14				1.59e+07 Volume	2.66e+07 Volume			2.49e+07 Volume	1.49e+07 Volume	
B15				3.09e+07 Volume	3.78e+07 Volume			2.12e+07 Volume	5.7e+06 Volume	
B16				1.76e+07 Volume	2.38e+07 Volume			3.07e+07 Volume	1.36e+07 Volume	
B17				1.8e+07 Volume	1.33e+07 Volume			2.1e+07 Volume	4.2e+06 Volume	
B18				1.65e+07 Volume	3.1e+07 Volume			3.09e+07 Volume	1.67e+07 Volume	
B19				1.7e+07 Volume	1.97e+07 Volume			2.95e+07 Volume	1.11e+07 Volume	

Same assay, conditions: not given

Protein	αs1-I CN, 16 hours, 30° C.	αs1 CN, 16 hours, 30° C.	(αSN1-1)/(αSN1), 6 hours, 11° C. (average)	(αSN1-1)/(αSN1), 24 hours, 11° C. (average)	αs1-I CN, 6 hours, 11° C. (average)	αs1-I CN, 24 hours, 11° C. (average)	αs1 CN, 6 hours, 11° C. (average)	αs1 CN, 24 hours, 11° C. (average)	(αSN1-1)/(αSN1), 6 hours, 11° C.	(αSN1-1)/(αSN1), 24 hours, 11° C.
B2	1.86e+07 Volume	1.8e+06 Volume								
B3	1.97e+07 Volume	1.6e+06 Volume								
B4	2.03e+07 Volume	1.4e+06 Volume								
B6	1.96e+07 Volume	1.5e+06 Volume								
B7	4.3e+06 Volume	0 Volume	0.5	1.2	1.81e+07 Volume	2.13e+07 Volume	3.52e+07 Volume	1.73e+07 Volume		
B8									0.6	2
B9									0.5	1.9
B10									0.6	2.1
B11									0.7	2.9
B12									0.7	2.3
B13									0.5	1.6
B14									0.6	1.8
B15									1.5	6.7
B16									0.6	1.7
B17									0.9	3.1
B18									0.5	1.9
B19									0.6	1.8
